Results: patent US20160024176A1

Biological target: V158 high affinity variant of CD16a (FcγRIIIa) (UniProt P08637)
Experiment: HTRF competition with IgG-d2 on HEK293 cells expressing terbium-labelled FcγRIIIa V158

## human IgG1 monoclonal antibody
  EC50: 220 nM
